Results as given in patent publication US20120021972A1 (CADILA HEALTHCARE, published 2012).
Starred links: 1 amine or outer side, 2 acyl side, 3 side chain; linkers in the order of their positions; H or OH if unused. Non-standard residues stand in square brackets, D forms with d. No end group written: not given here. *: point of attachment. NMe2F‑APPA = N-methyl-2-amino-5-(2-fluorophenyl)pentanoic acid, CN([C@@H](CCCc1ccccc1F)C(=O)[*:2])[*:1]; Bip(2'-Et-4'-OMe) = CCc1cc(OC)ccc1-c1ccc(C[C@H](N)C(=O)O)cc1; Nva(5-(3,5-Me2Ph)) = Cc1cc(C)cc(CCC[C@H](N)C(=O)O)c1; 2F‑APPA = 2-amino-5-(2-fluorophenyl)pentanoic acid; αMePhe(2-F) = C[C@](N)(Cc1ccccc1F)C(=O)O; NMeBip(OMe) = N-methylated Bip(OMe); hhPhe = N[C@@H](CCCc1ccccc1)C(=O)O; NMeD = CN[C@@H](CC(=O)O)C(=O)O; aThr = C[C@H](O)[C@H](N)C(=O)O; NMeAPPA = not defined here; CNB = not defined here; Ac3c = NC1(C(=O)O)CC1; Aib = CC(C)(N)C(=O)O; Moc = COC(=O)*

Assays:
human glucagon receptor = human glucagon receptor (human, UniProt P47871 26-477); assay: cell-based or functional assay
human GLP-1 receptor = human GLP-1 receptor (human, UniProt P43220 24-463); assay: cell-based or functional assay
human GLP-1 receptor, sequence (P43220 24-463): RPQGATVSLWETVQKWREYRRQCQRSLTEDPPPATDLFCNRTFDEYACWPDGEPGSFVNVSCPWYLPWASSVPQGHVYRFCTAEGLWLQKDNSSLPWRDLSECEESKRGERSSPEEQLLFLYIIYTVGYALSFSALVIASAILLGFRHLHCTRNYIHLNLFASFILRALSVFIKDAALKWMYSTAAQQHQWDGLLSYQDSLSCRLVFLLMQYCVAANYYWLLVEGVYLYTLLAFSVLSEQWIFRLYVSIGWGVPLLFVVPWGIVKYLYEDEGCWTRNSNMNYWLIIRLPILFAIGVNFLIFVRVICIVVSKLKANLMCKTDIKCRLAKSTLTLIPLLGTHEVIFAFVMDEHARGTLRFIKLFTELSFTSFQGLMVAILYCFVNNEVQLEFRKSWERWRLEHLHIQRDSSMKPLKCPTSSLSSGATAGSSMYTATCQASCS

| Binder | inhibition of cAMP production, 1 nM (human glucagon receptor) | inhibition of cAMP production, 10 nM (human glucagon receptor) | inhibition of cAMP production, 100 nM (human glucagon receptor) | inhibition of cAMP production, 1 µM (human glucagon receptor) | inhibition of cAMP production, 10 µM (human glucagon receptor) | cAMP release, % activity, 1 nM (human GLP-1 receptor) | cAMP release, % activity, 10 nM (human GLP-1 receptor) | cAMP release, % activity, 100 nM (human GLP-1 receptor) | cAMP release, % activity, 1 µM (human GLP-1 receptor) | cAMP release, % activity, 10 µM (human GLP-1 receptor) |
| --- | --- | --- | --- | --- | --- | --- | --- | --- | --- | --- |
| H[Ac3c]QGTFTSD[Bip(2'-Et-4'-OMe)][Nva(5-(3,5-Me2Ph))] [Seq. ID. No. 22: H-(ACP)-QGTFTSD-Bip(OMe)-(ADMP)] | 17 pmol/ml/µg prt | 15 pmol/ml/µg prt | 12 pmol/ml/µg prt | 8 pmol/ml/µg prt | 6 pmol/ml/µg prt | 99% | 99% | 99% | 99% | 99% |
| H[Aib][CNB]G[aThr][αMePhe(2-F)][aThr]S[NMeD][NMeBip(OMe)][NMeAPPA] (reading uncertain) [Seq. ID. No. 154: H-Aib-(CNB)-G-T(allo)-(α-Me-2F-Phe)-T(allo)-S-(NMe)D-((NMe)Bip(OMe))-((NMe)(APPA))] | 9 pmol/ml/µg prt | 6 pmol/ml/µg prt | 5 pmol/ml/µg prt | 3 pmol/ml/µg prt | 0 pmol/ml/µg prt | 60% | 92% | 98% | 99% | 99% |
| H[Aib][CNB]G[aThr][αMePhe(2-F)][aThr]SD[Bip(2'-Et-4'-OMe)][hhPhe] (reading uncertain; also: thioamide bond between residues 10 and 11) [Seq. ID. No. 166: H-Aib-(CNB)-G-T(allo)-(α-Me-2F-Phe)-T(allo)-SD-Bip(OMe)-(C═S)-(APPA)] | 19 pmol/ml/µg prt | 17 pmol/ml/µg prt | 15 pmol/ml/µg prt | 14 pmol/ml/µg prt | 12 pmol/ml/µg prt | 96% | 99% | 99% | 99% | 99% |
| H[Aib][CNB]G[aThr][αMePhe(2-F)][aThr]S[NMeD][NMeBip(OMe)][NMe2F‑APPA] (reading uncertain) | 5 pmol/ml/µg prt | 2 pmol/ml/µg prt | 0 pmol/ml/µg prt | 0 pmol/ml/µg prt | 0 pmol/ml/µg prt | 86% | 99% | 99% | 99% | 99% |

Results, then the binder that gave them:

| inhibition of cAMP production, 1 nM (human glucagon receptor) | inhibition of cAMP production, 10 nM (human glucagon receptor) | inhibition of cAMP production, 100 nM (human glucagon receptor) | inhibition of cAMP production, 1 µM (human glucagon receptor) | inhibition of cAMP production, 10 µM (human glucagon receptor) | cAMP release, % activity, 1 nM (human GLP-1 receptor) | cAMP release, % activity, 10 nM (human GLP-1 receptor) | cAMP release, % activity, 100 nM (human GLP-1 receptor) | cAMP release, % activity, 1 µM (human GLP-1 receptor) | cAMP release, % activity, 10 µM (human GLP-1 receptor) | Binder |
| --- | --- | --- | --- | --- | --- | --- | --- | --- | --- | --- |
| 21 pmol/ml/µg prt | 19 pmol/ml/µg prt | 18 pmol/ml/µg prt | 18 pmol/ml/µg prt | 16 pmol/ml/µg prt | 96% | 99% | 99% | 99% | 99% | H[Aib][CNB]G[aThr][αMePhe(2-F)][aThr]SD[Bip(2'-Et-4'-OMe)][2F‑APPA] (reading uncertain; also: thioamide bond between residues 10 and 11) [Seq. ID. No. 168: H-Aib-(CNB)-G-T(allo)-(α-Me-2F-Phe)-T(allo)-SD-Bip(OMe)-(C═S)-(2F-APPA)] |
| 18 pmol/ml/µg prt | 16 pmol/ml/µg prt | 12 pmol/ml/µg prt | 8 pmol/ml/µg prt | 6 pmol/ml/µg prt | 38% | 77% | 85% | 94% | 97% | Moc-H[Aib]QGT[αMePhe(2-F)]TSD[Bip(2'-Et-4'-OMe)][hhPhe] (also: reduced (CH2) bonds between 9-10 and 10-11) [Seq. ID. No. 194: CH3OCO-H-Aib-QGT-(α-Me-2F-Phe)-TSD-(CH2)-Bip(OMe)-(CH2)-(APPA)] |
